Test results reported in the RNAGym collection of RNA variant scans (doi:10.1021/acssynbio.7b00057).

B1: Pistol ribozyme (parent)
chain: GGGUCGUUGUUCCAUAAUCGCGUGGAUAUGGCACGCAAGUUUCUACCGGGCACCGUAAAUGUCCGACUGGAGCCGUUCGGGCGGCUAUAAACAGACCUCAGGCCCGAAGCGUGGCGGCACCUGCCGCCGGUGGUAAAAAAGAUCGGAAGAGCACACGUCU

Variants of: B1
Test: aptazyme ON/OFF ratio, guanine; higher = stronger switching; co-transcriptional cleavage with and without guanine

In order of falling “aptazyme ON/OFF ratio” value:
1. U7A U8G G9C U10A U11C C12U C13G  1.59
2. U7A U8G G9C U10A U11A C12U C13U  1.57
3. U7A U8G G9A U11A C12A  1.56
4. U7A U8G G9A U11G C12G C13U  1.52
5. U7A U8G G9A U11G C12U C13U  1.5
6. U7A U8G G9C C12A C13A  1.46
7. U7A U8G G9A U11G C12U C13G  1.44
8. U7A U8G G9A U10G  1.43
9. U7A U8G G9C U10A U11A C12U C13A  1.42
10. U7A U8G G9C U10C U11G C12U C13U  1.41
11. U7A U8G G9A U11G C13U  1.4
12. U7A U8G G9A U11G C12A C13G  1.39
13. U7A U8G G9A U11G C13A  1.39
14. U7A U8G G9A U11C C12A C13U  1.38
15. U7A U8G G9A U10G U11C C12A C13U  1.38
16. U7A U8G G9A U10C C12G C13G  1.38
17. U7A U8G G9C U10A U11G C13U  1.37
18. U7A U8G G9A U11A C12G  1.37
19. U7A U8G G9A U10G C12G  1.36
20. U7A U8G G9A U10G U11C C12A C13G  1.36
21. U7A U8G G9C U10A U11A C12U C13G  1.34
22. U7A U8G G9A U10G U11G C12U C13A  1.33
23. U7A U8G G9C U10A C12A C13U  1.32
24. U7A U8G G9C U10A C12U C13A  1.31
25. U7A U8G G9A U11C C12A C13G  1.3
26. U7A U8G G9C C12A C13U  1.29
27. U7A U8G G9C U10A U11G C13A  1.29
28. U7A U8G G9C U10C C13U  1.28
29. U7A U8G G9C U10A U11C C12G C13A  1.27
30. U7A U8G G9C U10A U11C C12U C13A  1.26
31. U7A U8G G9C U10A C12A C13G  1.26
32. U7A U8G G9C U10A U11C C12G C13U  1.26
33. U7A U8G G9C U10A U11G C13G  1.26
34. U7A U8G G9C U10A C12A C13A  1.25
35. U7A U8G G9A U10G C12A  1.24
36. U7A U8G G9A U10C U11A C12A  1.24
37. U7A U8G G9C U10C U11A C12G C13A  1.23
38. U7A U8G G9C U10A U11C C12U C13U  1.23
39. U7A U8G G9A U10G U11G C12U C13U  1.22
40. U7A U8G G9C U10C U11A C12G C13G  1.21
41. U7A U8G G9A U10G C12U  1.21
42. U7A U8G G9C U10A C12U C13G  1.21
43. U7A U8G G9A U10G U11C C12A C13A  1.2
44. U7A U8G G9A U10C U11A C12U  1.2
45. U7A U8G G9A U10C C12G C13A  1.19
46. U7A U8G G9C U10C U11G C12G C13A  1.18
47. U7A U8G G9C U10C U11G C12G C13G  1.18
48. U7A U8G G9C U10C U11A C12G C13U  1.17
49. U7A U8G G9A U10C C12G C13U  1.17
50. U7A U8G G9C U10A U11C C12G C13G  1.17
51. U7A U8G G9C U10C U11G C12A C13A  1.17
52. U7A U8G G9A U11G C12A C13A  1.16
53. U7A U8G G9A U11G C13G  1.16
54. U7A U8G G9C C12A C13G  1.16
55. U7A U8G G9A U10G U11A C13G  1.16
56. U7A U8G G9C U10C U11G C12U C13G  1.15
57. U7A U8G G9C U10C U11G C12U C13A  1.15
58. U7A U8G G9C U10C U11G C12A C13G  1.15
59. U7A U8G G9A U11C C12A C13A  1.14
60. U7A U8G G9A U10C U11A C12G  1.13
61. U7A U8G G9A U10C U11C C12A  1.13
62. U7A U8G G9C U10C C12A C13U  1.12
63. U7A U8G G9A U11G C12U C13A  1.12
64. U7A U8G G9C U10A C12U C13U  1.11
65. U7A U8G G9A U10G U11A C13A  1.11
66. U7A U8G G9A U11G C12G C13A  1.1
67. U7A U8G G9C U10C C13G  1.1
68. U7A U8G G9C U10C U11G C12G C13U  1.09
69. U7A U8G G9C U10C C13A  1.09
70. U7A U8G G9C U10C C12A C13A  1.08
71. U7A U8G G9A U11G C12G C13G  1.08
72. U7A U8G G9A U10C U11C C12U  1.08
73. U7A U8G G9A U11G C12A C13U  1.07
74. U7A U8G G9A U10C U11C C12G  1.07
75. U7A U8G G9C U10C U11C C12A C13G  1.06
76. U7A U8G G9C U10C U11C C12U C13G  1.06
77. U7A U8G G9C U10C U11G C12A C13U  1.06
78. U7A U8G G9C U10C C12A C13G  1.05
79. U7A U8G G9C U10C U11C C12U C13A  1.05
80. U7A U8G G9C U10C U11C C12A C13U  1.04
81. U7A U8G G9A U10G U11A C13U  1.03
82. U7A U8G G9C U10C U11C C12A C13A  1.01
83. U7A U8G G9C U10C U11C C12U C13U  1.01
84. U7A U8G G9A U10G U11G C12U C13G  1
